From article PMC2606670 come the findings set out here.

Assay [1] addresses GST-ctβ382-401 Y390F (mouse | not stated) (UniProt P09690). In words: far-Western, overlay or dot blot.
Assay [2] concerns the target acetylcholine receptor containing beta subunit phosphorylated at Y390 (mouse (endogenous in myotubes)) (UniProt P04756). In words: co-IP.
Sequence of UniProt P04756 (P04756 21-457, chain 1 of 4): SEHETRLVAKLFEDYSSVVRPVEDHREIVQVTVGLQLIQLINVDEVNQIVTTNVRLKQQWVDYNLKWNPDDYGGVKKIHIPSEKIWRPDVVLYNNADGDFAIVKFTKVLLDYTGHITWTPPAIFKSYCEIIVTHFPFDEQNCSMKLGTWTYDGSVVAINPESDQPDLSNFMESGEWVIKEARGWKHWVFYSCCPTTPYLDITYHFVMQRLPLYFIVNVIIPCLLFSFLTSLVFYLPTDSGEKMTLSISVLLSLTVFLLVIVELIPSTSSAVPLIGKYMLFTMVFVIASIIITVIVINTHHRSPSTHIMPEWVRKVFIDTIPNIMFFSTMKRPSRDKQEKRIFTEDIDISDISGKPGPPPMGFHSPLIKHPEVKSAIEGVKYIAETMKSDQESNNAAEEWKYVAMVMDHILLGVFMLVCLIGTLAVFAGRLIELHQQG
Sequence of UniProt P04756 (P09690 24-501, chain 2 of 4, further chain): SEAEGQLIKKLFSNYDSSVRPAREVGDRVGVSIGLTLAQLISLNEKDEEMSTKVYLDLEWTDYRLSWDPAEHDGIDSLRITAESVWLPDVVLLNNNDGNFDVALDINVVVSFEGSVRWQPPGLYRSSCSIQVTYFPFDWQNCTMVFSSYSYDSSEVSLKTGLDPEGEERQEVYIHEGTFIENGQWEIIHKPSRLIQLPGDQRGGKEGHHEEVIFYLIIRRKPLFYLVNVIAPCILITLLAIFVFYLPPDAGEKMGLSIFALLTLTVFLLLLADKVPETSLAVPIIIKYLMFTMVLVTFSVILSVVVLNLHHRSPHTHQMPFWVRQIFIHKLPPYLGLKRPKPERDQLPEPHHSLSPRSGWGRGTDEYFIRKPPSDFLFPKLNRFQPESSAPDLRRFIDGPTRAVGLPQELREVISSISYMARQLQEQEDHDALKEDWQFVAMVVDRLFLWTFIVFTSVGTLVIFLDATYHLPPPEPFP
Sequence of UniProt P04756 (P02716 25-520, chain 3 of 4, further chain): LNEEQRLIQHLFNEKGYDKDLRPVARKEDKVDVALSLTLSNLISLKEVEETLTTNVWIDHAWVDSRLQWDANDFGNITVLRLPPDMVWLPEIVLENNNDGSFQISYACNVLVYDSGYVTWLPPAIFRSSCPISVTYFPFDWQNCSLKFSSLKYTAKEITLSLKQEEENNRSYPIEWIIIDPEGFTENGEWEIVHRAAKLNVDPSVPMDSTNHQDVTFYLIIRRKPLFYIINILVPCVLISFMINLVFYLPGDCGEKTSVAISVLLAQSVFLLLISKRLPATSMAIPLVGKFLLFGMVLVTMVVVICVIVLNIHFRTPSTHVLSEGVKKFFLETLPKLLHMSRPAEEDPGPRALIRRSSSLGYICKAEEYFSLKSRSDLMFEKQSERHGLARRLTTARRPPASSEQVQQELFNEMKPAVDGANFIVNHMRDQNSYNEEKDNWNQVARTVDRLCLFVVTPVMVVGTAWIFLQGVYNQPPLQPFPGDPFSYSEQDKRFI
Sequence of UniProt P04756 (P04760 23-519, chain 4 of 4, further chain): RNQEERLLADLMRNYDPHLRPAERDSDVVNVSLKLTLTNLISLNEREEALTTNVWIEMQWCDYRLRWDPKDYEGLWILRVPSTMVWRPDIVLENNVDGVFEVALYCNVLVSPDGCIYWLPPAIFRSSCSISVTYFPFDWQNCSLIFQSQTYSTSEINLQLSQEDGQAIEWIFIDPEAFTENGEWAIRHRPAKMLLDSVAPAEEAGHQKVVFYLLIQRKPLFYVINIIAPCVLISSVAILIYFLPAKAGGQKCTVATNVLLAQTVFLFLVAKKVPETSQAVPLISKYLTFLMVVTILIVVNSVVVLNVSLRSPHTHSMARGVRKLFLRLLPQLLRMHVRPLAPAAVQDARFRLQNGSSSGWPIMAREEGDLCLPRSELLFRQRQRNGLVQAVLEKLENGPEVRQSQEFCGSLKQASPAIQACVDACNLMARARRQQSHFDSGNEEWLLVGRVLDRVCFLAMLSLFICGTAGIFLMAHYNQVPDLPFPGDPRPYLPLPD

B1: GST-rapsyn (natural protein)
chain: MGQDQTKQQIEKGLQLYQSNQTEKALQVWMKVLEKGSDLVGRFRVLGCLVTAHSEMGRYKEMLKFAVVQIDTARGLEDADFLLESYLNLARSNEKLCEFHKTISYCKTCLGLPGTRAGAQLGGQVSLSMGNAFLGLSLFQKALESFEKALRYAHNNDDTMLECRVCCSLGSFYAQVKDYEKALFFPCKAAELVNDYGKGWSLKYRAMSQYHMAVAYRLLGHLGSAMECCEESMKIALQHGDRPLQALCLLCFADIHRSRGDLETAFPRYDSAMSIMTEIGNRLGQVHVLLGVAKCWMARKVQDKALDAIEKAQDLAEEVGNKLSQLKLHCLSESIYRSKGLQRELRTHVVRFHECVEETELYCGLCGESIGERNSRLQALPCSHIFHLRCLQNNGTRSCPNCRRSSMKPGFV
Turning to B1, in assay [1], the % of binding to β382-401 WT (% of binding to β382-401 WT) stood at 92.

B2: rapsyn, endogenous in mouse myotubes (natural protein)
chain: B1 chain
For B2, in assay [2], the fold rapsyn associated, against AChR with non-phosphorylated β subunit was determined as 2.3 fold.
